Substrate in data set [1]: N[C@@H](CC1(C(=O)O)C=CC(O)C=C1)C(=O)O
Description: TyrA arogenate dehydrogenase kinetics and tyrosine inhibition (340 nm). It is filed as biochemical, Sorghum bicolor. The settings on record: other: NADP^+, pH 7.5, 37° C. An excerpt:
(§1) Next, to study the biochemical properties of grass TyrA enzymes, we generated and characterized recombinant purified TyrA proteins from Brachypodium (BdTyrA) and Sorghum (SbTyrA), two distantly related grass species^43, 44. Whereas TyrA enzymes from dicot plants are generally NADP^+-dependent arogenate dehydrogenases^20, 39, 45, except for NADP^+-prephenate dehydrogenases in the legume family^40, 46, previous reports on the substrate preference of grass TyrA enzymes are inconclusive^17, 19. […] NAD^+-prephenate dehydrogenase activity was absent in all cases, ruling out a significant contamination of the enzyme preparations with the TyrA enzyme from E. coli^47.48.

Substrate in data set [2]: N[C@@H](CC1(C(=O)O)C=CC(O)C=C1)C(=O)O
Described as above. The data set is classed as biochemical, Brachypodium distachyon. The settings on record: other: NADP^+, pH 7.5, 37° C.
Description: as §1

B1: Sorghum bicolor SbTyrA1, SEQ ID NO: 39, recombinant (Sorghum bicolor) (protein)
chain: MLSSSTSTLRLHQPTRPHRHHPPAPAAGGATHLASPRRWRGHAPGASSPPALRARAQRIRALDAAQPFDFESRAAGLLEERQRLKIAIVGFGNFGQFLARTFARQGHTLLAHSRTDHSALASTLGASFFTDPHDLCECHPDVVLLATSILSAEAVLRSLPVHRLRRNTLFVDVLSVKEFPRNLLLSSLPPDFDVICTHPMFGPESARDGWDGLPFVFDKVRVGDCPARRARAEAFLNIFEREGCRMVEMSCAEHDAHAAETQFLTHTVGRMLAMLELRSTPINTKGYETLLRLVDNTCSDSFDLYNGLFMYNKNSTELLNRVEWAMDSVKKKLFDGLHDVLRKQLFEGSPHAPNVSSSNVRK
notes: from genomic DNA
As for B1, in data set [1], the Km was determined as 570 ± 150 µM, the kcat stood at 2.9 ± 0.6 s⁻¹ and the specificity constant (kcat/Km) was 5300 ± 800 M⁻¹ s⁻¹.

B2: Sorghum bicolor SbTyrAnc (non-canonical TyrA), SEQ ID NO: 43, recombinant (Sorghum bicolor) (protein)
chain: ALTSPSPVEQHLQAVVPCHGISDPPAASSAAAVPAAPLRVGIVGFGNFGQFIAGGLQRQGHVVLAASRSDYSVYCASHGIRFFRSVDALCEEQPDVLLICSSILSTEGVVRAIPFRKLRHDTIVADVLSVKEFPRNLLLEVLPPGFGIICTHPMFGPESGKHGWGKLPFVFDKVRVAEDGDQAAKCDQFLSIFEQEGCRMVEMSCAEHDRYAAGSQFITHTIGRVLSQLNLKSTPINTKGYETLLQLTKNTVSDSFDLYYGLFMYNVNATEQLDKLEMAFEKVRQMLSGRLHDFIRKQIVERAAHVPADPSGKLANGLSSSPAARLL
notes: from cDNA
B2: in data set [1], the Km was 220 ± 60 µM, the kcat is 73.5 ± 18.2 s⁻¹ and the kcat/Km was determined as 338000 ± 19500 M⁻¹ s⁻¹.

B3: Sorghum bicolor SbTyrA2, SEQ ID NO: 41, recombinant (Sorghum bicolor) (protein)
chain: ATGASQPLGTDSNEEVEKVEEQPQPPPRLKIAVVGFGTFGQFLARTLVAQGHTVLAHSRSDHSAAAASMGALFFSDPHDLCECHPDVVLLATSILSAESVVRSLPLHRLRRDTLFADVLSVKEFPKRLLLGLLPEEMDILCTHPMFGPESARAGWAGLPFMFDKVRVRDTVPARRARAEAFLDVFAQEGCRMVEMSCAEHDAHAAETQFLTHTVGRMLAALELRATPIDTRGYETLLRLVENTCSDSFDLYNGLFMYNNNSTELLNRLDWAMDAVKRRLFDGLHDVLRRQLFHVGEVEGEAERMEELAVVPGGGPDTDDDGCATATATSIKSGEENN
notes: from genomic DNA
Take B3: in data set [1], the Km was determined as 2130 ± 530 µM, the kcat was 38.5 ± 8.8 s⁻¹ and the specificity constant (kcat/Km) worked out at 18100 ± 9600 M⁻¹ s⁻¹.

B4: Brachypodium distachyon BdTyrAnc (non-canonical TyrA), SEQ ID NO: 37, recombinant (Brachypodium distachyon) (protein)
chain: AEQEQKQEVAAPCRDAYEKPAVWNTTAADSAEAAPPLRVGIIGFGNFGQFIARGIQRQGHAVLATSRSDYSAYCSAQGIRYFRSLEALCEEQPNVLLVCSSILSTEAVVRAIPFHKLRSDTIVADVLSVKQFPRNLLLEILPPEFGIVCTHPMFGPESGKHGWSTLPFVYDKVRLADKGDQKANCGQFLSIFEGEGCRMVEMSCAEHDRHAAASQFITHTIGRVLAQLNLKSTPINTKGFEALLKLTENTVSDSFDLYYGLFMYNVNATEQIEKLERAFEKVKQMLYGRLHDILRKQIVERVPI
notes: from cDNA
Take B4: in data set [2], the Km was determined as 130 ± 40 µM, the kcat is 76.5 ± 5.5 s⁻¹ and the kcat/Km was found to be 580000 ± 24300 M⁻¹ s⁻¹.

B5: Brachypodium distachyon BdTyrA2, SEQ ID NO: 35, recombinant (Brachypodium distachyon) (protein)
chain: RATDAARQPFDHLSGAVKSEEGTHPRLKIAIVGFGNYGQFLARTMVQQGHTVLAHSRSDHSAAAATIGASFYADAHDLCECQPDVVLLSTSILSAEAVLRSLPVHRFRRSTLFADVLSVKEFPKNLLLAYLPGDFDVICTHPMFGPESARDGWAGLPFVFDEVRVGDGPARRARADAFLDVFAREGCRMVEMSCAEHDAHAAETQFLTHTVGRMLATLDLKSTPINTKGYETLLRLVDNTCSDSFDLYNGLFMYNNNATELLHRLESAMDSVKRRLFDGLHEVLRRQLFEGSPPLNRDSSFPAESSLDDGR
In the case of B5, in data set [2], the Km was determined as 450 ± 40 µM, the kcat worked out at 18.5 ± 0.6 s⁻¹ and the kcat/Km is 41200 ± 1700 M⁻¹ s⁻¹.

B6: Brachypodium distachyon BdTyrA1, SEQ ID NO: 33, recombinant (Brachypodium distachyon) (protein)
chain: MLSSSTSHLRLHQPSRAARRLPPAPAPATYQFQSPASRRSLPAPAVGARIRPNRGGTIRAIDAAQPFDYESRAAGLLEERQRLKIAIVGFGNFGQFLARTFARQGHTLLAHSRSDHSSLAASLGAAYFQDPHDLCECHPDVVLLATSILSAEAVLRSLPVHRLRRNTLFVDVLSVKEFPKNLLLTTLPEGFDIICTHPMFGPESARDGWDGLPFVFDKVRVGDCPARRARADTFLNIFEREGCRMVEMSCAEHDAHAAETQFLTHTVGRMLATLELQSTPINTKGYETLLRLVDNTCSDSFDLYNGLFMYNKNSTDLLNRLESAMDSVKKRLFDGLHDVLRKQLFEGKASPPATSSNTKSDVHRGQLLLEGKASPAPLNANNTTVRN
notes: from genomic DNA
In the case of B6, in data set [2], the Km worked out at 1410 ± 240 µM, the kcat was 5.2 ± 0.8 s⁻¹ and the kcat/Km was 3600 ± 800 M⁻¹ s⁻¹.
